This passage reports protein stability index results from the supplement of paper PMC10567573.

The nature of this data set: protein stability index of a GFP-peptide fusion (GPS, HEK-293T) (PSI 1-6); higher = more stable. The following applies: c terminus: a fixed tail appended.

± gives the standard deviation.
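Also: 24-mer peptide tiles fused after GFP, lentivirally expressed, FACS-sorted into six equal bins by GFP/DsRed ratio, decoded by Illumina sequencing, PSI is the read-weighted mean bin number.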

Turning to QEDITKSLLVTELGSSRTPETVRM [IMPA1], the protein stability index (treatment: DMSO) is 4.58 ± 0.12 and the protein stability index (treatment: MLN4924 1 uM, 8 h) is 4.49 ± 0.34.

As to QEELPALLKALVSELSEHLRDPLT [FCHSD1], the protein stability index (treatment: DMSO) is 2.13 ± 0.31 and the protein stability index (treatment: MLN4924 1 uM, 8 h) came to 2.25 ± 0.071.

As for QEFAARAAKQLEYQQLEDDKLSQK [EPB41L3], for the setting “treatment: DMSO”, the protein stability index stood at 5.17 ± 0.81.

In turn, QEHQSALEEAKQPKNDNVVIPECA [SMOC2] yielded a protein stability index (treatment: DMSO) of 5.51 ± 0.23 and a protein stability index (treatment: MLN4924 1 uM, 8 h) of 5.46 ± 0.27.

In turn, QENQARTHVLSKEVQHLREEKSKQ [LRRC45] yielded a protein stability index (treatment: DMSO) of 5.2 ± 0.29 and a protein stability index (treatment: MLN4924 1 uM, 8 h) of 5.36 ± 0.29.

Consider QEVTKLQQQVKTNGAGVTVLRREI [FBXO28], for which the protein stability index stood at 3.97 ± 0.25 (treatment: DMSO) and 4.03 ± 0.45 (treatment: MLN4924 1 uM, 8 h).

For QFSSRDCTRPVPRNGGKYCEGRRT [ADAMTS4], the protein stability index is, setting by setting: (treatment: DMSO) 4.22 ± 0.47; (treatment: MLN4924 1 uM, 8 h) 4.51 ± 0.55.

QFTAWPDHGVPEHPTPFLAFLRRV [PTPRD] came in with a protein stability index (treatment: DMSO) of 2.44 ± 0.2 and a protein stability index (treatment: MLN4924 1 uM, 8 h) of 2.76 ± 0.26.

QGEEPWVQVSPEFKDSAGKSPTGL [ZNF75A]: the protein stability index is, setting by setting: (treatment: DMSO) 4.87 ± 0.22; (treatment: MLN4924 1 uM, 8 h) 5.04 ± 0.22.

For the sequence QGEICLCTSRIFVQKSIYSEFLKR [ALDH8A1], the protein stability index is, setting by setting: (treatment: DMSO) 2.29 ± 0.64; (treatment: MLN4924 1 uM, 8 h) 2.06 ± 0.49.

QGKADGLYPNPRERSSFYSCAGGR [CHIT1]: the protein stability index runs as follows: (treatment: DMSO) 3.64 ± 0.097; (treatment: MLN4924 1 uM, 8 h) 3.87 ± 0.31.

Take QGVHQGAGFQDIPKRCLKAREHFG [TSN]: the protein stability index by setting is: (treatment: DMSO) 3.31 ± 0.36; (treatment: MLN4924 1 uM, 8 h) 2.9 ± 0.27.

Regarding QHNLRYSLENTLTESEARYSSQLS [KRT33B], the protein stability index reads like this: (treatment: DMSO) 4.11 ± 0.27; (treatment: MLN4924 1 uM, 8 h) 4.11 ± 0.21.

For the sequence QICGTHRQTKKMFCDMDKSLLCLL [TRIM43], the protein stability index reads like this: (treatment: DMSO) 2.77 ± 1; (treatment: MLN4924 1 uM, 8 h) 2.18 ± 0.36.

QIQEFKEAFTLMDQNRDGFIDKED [MYL5]: the protein stability index by setting is: (treatment: DMSO) 5.12 ± 0.26; (treatment: MLN4924 1 uM, 8 h) 5.19 ± 0.32.

For the sequence QKLEREARICRLLKHPNIVRLHDS [CAMK2A], the protein stability index reads like this: (treatment: DMSO) 2.5 ± 0.13; (treatment: MLN4924 1 uM, 8 h) 2.72 ± 0.17.

Consider QKSGLIRHQKIHSGEKPYKCSDCG [ZNF649], for which the protein stability index is, setting by setting: (treatment: DMSO) 3.63 ± 0.52; (treatment: MLN4924 1 uM, 8 h) 4.04 ± 0.29.

For QLAAGRHGDDLKNTKNEISELTRL [KRT71], the protein stability index runs as follows: (treatment: DMSO) 4.58 ± 0.32; (treatment: MLN4924 1 uM, 8 h) 4.52 ± 0.15.

As for QLGQRIYQYIQSRFYRSPEVLLGT [DYRK1B], the protein stability index was 2.23 ± 0.16 (treatment: DMSO) and 2.53 ± 0.44 (treatment: MLN4924 1 uM, 8 h).

As to QLNGILLHLESELAQTRAEGQRQA [KRT18], the protein stability index is, setting by setting: (treatment: DMSO) 2.93 ± 0.26; (treatment: MLN4924 1 uM, 8 h) 2.86 ± 0.16.

QLVNSSADNMLEYKSWLKNLAKEQ [PPEF2]: the protein stability index (treatment: DMSO) stood at 3.24 ± 0.17 and the protein stability index (treatment: MLN4924 1 uM, 8 h) turned out to be 3.77 ± 0.5.

Take QLWELGKVLRKAGLSAGYVDAGAE [LPCAT4]: the protein stability index is, setting by setting: (treatment: DMSO) 2.13 ± 0.27; (treatment: MLN4924 1 uM, 8 h) 2.13 ± 0.36.

On to QNCKKKLGKLPPQYALELLTVYAW [OAS1], for which the protein stability index is 2.6 ± 0.58 (treatment: DMSO) and 2.25 ± 0.64 (treatment: MLN4924 1 uM, 8 h).

As to QNLYFNCSSPGVQACSLPASCCID [TSPAN10], the protein stability index amounted to 3.12 ± 0.22 (treatment: DMSO) and 3.25 ± 0.2 (treatment: MLN4924 1 uM, 8 h).

Turning to QNRRAKLKRSHRESQFLMAKKNFN [HESX1], the protein stability index is 3.43 ± 0.24 (treatment: DMSO) and 3.48 ± 0.43 (treatment: MLN4924 1 uM, 8 h).

QNVDVNVHPTKHEVHFLHEESILE [MLH1] yielded a protein stability index (treatment: DMSO) of 4.72 ± 0.19 and a protein stability index (treatment: MLN4924 1 uM, 8 h) of 4.75 ± 0.056.

QNVRNHIHSCFSDVTCFLLPHPGL [ATL3]: the protein stability index by setting is: (treatment: DMSO) 2.49 ± 0.65; (treatment: MLN4924 1 uM, 8 h) 2.29 ± 0.55.

As to QPADVFPRLFKEWNITKLSIEYDS [CRY1], the protein stability index stood at 2.7 ± 0.32 (treatment: DMSO) and 2.92 ± 0.3 (treatment: MLN4924 1 uM, 8 h).

Take QPGLSFLNLGSGTGYLSTMVGLIL [PCMTD1]: the protein stability index was found to be 2.15 ± 0.29 (treatment: DMSO) and 2.2 ± 0.31 (treatment: MLN4924 1 uM, 8 h).

QPKEPQLTCDSAQKCHSIGETDEV [ZSCAN9]: the protein stability index is, setting by setting: (treatment: DMSO) 5.43 ± 0.22; (treatment: MLN4924 1 uM, 8 h) 5.57 ± 0.21.

Turning to QPLNFVRFYLPLLIHQHEKVIYLD [GLT8D2], the protein stability index is, setting by setting: (treatment: DMSO) 3.02 ± 0.59; (treatment: MLN4924 1 uM, 8 h) 3.03 ± 0.69.

Consider QPPPPRRVTNVGSLLLTPQENESL [WASL], for which the protein stability index is, setting by setting: (treatment: DMSO) 4.73 ± 0.083; (treatment: MLN4924 1 uM, 8 h) 4.66 ± 0.27.

QPPTTTVARSGTPAVENKQQIGDA [PLK2]: the protein stability index is 5.4 ± 0.16 (treatment: DMSO) and 5.37 ± 0.37 (treatment: MLN4924 1 uM, 8 h).

Turning to QQKWTKPARAGSEVEWTEDLALDL [C2CD2L], the protein stability index runs as follows: (treatment: DMSO) 4.37 ± 0.27; (treatment: MLN4924 1 uM, 8 h) 4.48 ± 0.28.

For QQYQEQLDKSTKLVETAIQSLDEP [TRIM63], the protein stability index came to 5.1 ± 0.32 (treatment: DMSO) and 5.07 ± 0.086 (treatment: MLN4924 1 uM, 8 h).

With QRQVWLLFEYPESSGPARGIAIVS [KCNA3], the protein stability index is 2.69 ± 0.21 (treatment: DMSO) and 2.48 ± 0.77 (treatment: MLN4924 1 uM, 8 h).
